Results on one substance are retold here after patent publication US20150118286.

The subject of one data set is T1, P17 peptide.
T1 sequence: RRRYWYYR

The next data set deals with T2, P18 peptide.
T2 sequence: RRYWYWRR

Another data set relates to T3, P16 peptide.
T3 sequence: RRWWRRYY

For Human tyrosinase, the “reduction of human tyrosinase activity at 200 µM (L-dopa substrate)” value was 12% for P17 in the data set on P17 peptide, 25% for P18 with P18 peptide and “human tyrosinase activity was reduced by 30% for P16” in the data set with P16 peptide.
